Test results from US20180155451A1 (published 2018).

T1: FcγRIIa R (human FcγRIIa, allotype R, Arg at position 131), extracellular domain with C-terminal His tag (human, UniProt P12318 34-217)
T1 construct: extracellular domain; expressed in FreeStyle293 cells; analyte in Biacore; also called 2aR; FcgRIIa R
T1 sequence (looked up): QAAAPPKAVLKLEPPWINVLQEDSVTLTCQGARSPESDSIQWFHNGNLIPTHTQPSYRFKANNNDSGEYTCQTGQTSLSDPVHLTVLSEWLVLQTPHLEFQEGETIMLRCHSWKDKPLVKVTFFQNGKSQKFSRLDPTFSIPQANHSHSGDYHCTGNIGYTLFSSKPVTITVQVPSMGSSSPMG

B1: GpH7-B3 variant S337_02A/GpL16-k0 (antibody, human IgG1, kappa)
heavy: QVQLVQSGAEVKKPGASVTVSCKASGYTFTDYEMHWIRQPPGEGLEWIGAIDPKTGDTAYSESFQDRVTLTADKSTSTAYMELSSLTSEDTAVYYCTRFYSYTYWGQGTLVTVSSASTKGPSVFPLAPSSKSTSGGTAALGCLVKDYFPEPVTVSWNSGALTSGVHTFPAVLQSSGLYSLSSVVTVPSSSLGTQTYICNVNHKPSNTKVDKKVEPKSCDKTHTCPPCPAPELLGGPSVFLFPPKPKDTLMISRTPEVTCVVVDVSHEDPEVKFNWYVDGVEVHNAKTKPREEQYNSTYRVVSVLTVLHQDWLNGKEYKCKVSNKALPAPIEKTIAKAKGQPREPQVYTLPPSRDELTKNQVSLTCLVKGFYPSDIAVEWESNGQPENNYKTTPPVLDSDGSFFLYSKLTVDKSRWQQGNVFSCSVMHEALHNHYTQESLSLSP
light: DIVMTQSPLSLPVTPGEPASISCQASESLVHSNRNTYLHWYLQKPGQSPQLLIYKVSNRFSGVPDRFSGSGSGTDFTLKISRVEAEDVGVYYCSQNTHVPPTFGQGTKVEIERTVAAPSVFIFPPSDEQLKSGTASVVCLLNNFYPREAKVQWKVDNALQSGNSQESVTEQDSKDSTYSLSSTLTLSKADYEKHKVYACEVTHQGLSSPVTKSFNRGEC
notes: homodimerized antibody, mutation in both H chains; also called Ho Ab
B2: GpH7-B3 variant P238_10E/GpL16-k0 (antibody, human IgG1, kappa)
heavy: not shown
light: B1 light
notes: as for B1
B3: GpH7-B3 variant P238_15Y/GpL16-k0 (antibody, human IgG1, kappa)
heavy: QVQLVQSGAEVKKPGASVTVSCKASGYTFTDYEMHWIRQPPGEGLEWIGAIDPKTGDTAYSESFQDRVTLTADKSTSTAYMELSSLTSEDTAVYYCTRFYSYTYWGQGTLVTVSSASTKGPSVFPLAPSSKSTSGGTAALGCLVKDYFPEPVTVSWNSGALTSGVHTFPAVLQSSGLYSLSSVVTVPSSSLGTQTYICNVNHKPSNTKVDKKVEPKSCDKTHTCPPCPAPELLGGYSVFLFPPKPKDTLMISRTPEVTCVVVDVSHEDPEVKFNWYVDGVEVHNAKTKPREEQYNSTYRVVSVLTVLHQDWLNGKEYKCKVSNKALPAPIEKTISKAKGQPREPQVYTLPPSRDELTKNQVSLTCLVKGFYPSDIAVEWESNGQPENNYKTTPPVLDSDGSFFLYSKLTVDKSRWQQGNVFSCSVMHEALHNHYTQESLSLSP
light: B1 light
notes: as for B1
B4: GpH7-B3 variant P238_16H/GpL16-k0 (antibody, human IgG1, kappa)
heavy: not shown
light: B1 light
notes: as for B1
B5: GpH7-B3 variant P238_19Q/GpL16-k0 (antibody, human IgG1, kappa)
heavy: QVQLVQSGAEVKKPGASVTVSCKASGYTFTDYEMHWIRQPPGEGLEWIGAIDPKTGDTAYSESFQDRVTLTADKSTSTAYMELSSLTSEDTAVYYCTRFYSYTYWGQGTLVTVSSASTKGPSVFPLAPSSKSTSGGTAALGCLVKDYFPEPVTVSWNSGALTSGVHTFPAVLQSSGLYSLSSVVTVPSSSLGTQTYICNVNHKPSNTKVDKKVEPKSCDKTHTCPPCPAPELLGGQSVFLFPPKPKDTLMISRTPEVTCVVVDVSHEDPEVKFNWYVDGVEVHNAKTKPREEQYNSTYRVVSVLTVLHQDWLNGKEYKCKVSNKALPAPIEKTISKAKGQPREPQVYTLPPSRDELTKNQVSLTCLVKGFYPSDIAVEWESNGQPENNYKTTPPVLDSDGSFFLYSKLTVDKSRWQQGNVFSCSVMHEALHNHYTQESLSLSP
light: B1 light
notes: as for B1
B6: GpH7-B3 variant P238_20W/GpL16-k0 (antibody, human IgG1, kappa)
heavy: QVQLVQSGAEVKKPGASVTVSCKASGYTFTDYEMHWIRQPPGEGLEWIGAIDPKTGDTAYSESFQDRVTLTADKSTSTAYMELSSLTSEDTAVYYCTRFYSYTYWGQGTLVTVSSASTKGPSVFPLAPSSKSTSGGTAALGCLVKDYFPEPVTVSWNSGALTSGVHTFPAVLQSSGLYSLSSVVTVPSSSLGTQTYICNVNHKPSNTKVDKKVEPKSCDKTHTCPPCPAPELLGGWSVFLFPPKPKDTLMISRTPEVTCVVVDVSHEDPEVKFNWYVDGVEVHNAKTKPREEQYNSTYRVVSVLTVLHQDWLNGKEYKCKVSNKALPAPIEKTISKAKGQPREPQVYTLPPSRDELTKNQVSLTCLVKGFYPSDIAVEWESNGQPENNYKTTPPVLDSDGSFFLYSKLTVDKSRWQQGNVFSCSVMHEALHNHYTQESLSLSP
light: B1 light
notes: as for B1
B7: GpH7-B3 variant P271_09D/GpL16-k0 (antibody, human IgG1, kappa)
heavy: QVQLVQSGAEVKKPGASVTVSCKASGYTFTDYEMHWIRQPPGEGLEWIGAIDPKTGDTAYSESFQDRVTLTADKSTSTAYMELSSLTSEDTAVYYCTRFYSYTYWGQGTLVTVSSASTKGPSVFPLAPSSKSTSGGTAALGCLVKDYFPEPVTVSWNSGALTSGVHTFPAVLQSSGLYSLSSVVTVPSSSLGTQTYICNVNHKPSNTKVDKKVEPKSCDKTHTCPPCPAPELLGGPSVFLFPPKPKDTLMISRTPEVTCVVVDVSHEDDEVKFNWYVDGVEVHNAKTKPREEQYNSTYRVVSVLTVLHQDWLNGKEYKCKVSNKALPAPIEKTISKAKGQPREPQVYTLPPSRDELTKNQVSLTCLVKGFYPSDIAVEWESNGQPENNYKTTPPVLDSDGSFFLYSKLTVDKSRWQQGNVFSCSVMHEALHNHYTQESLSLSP
light: B1 light
notes: as for B1
B8: GpH7-B3 variant P271_10E/GpL16-k0 (antibody, human IgG1, kappa)
heavy: not shown
light: B1 light
notes: as for B1
B9: GpH7-B3 variant P331_03V/GpL16-k0 (antibody, human IgG1, kappa)
heavy: not shown
light: B1 light
notes: as for B1
B10: GpH7-B3 variant P331_06M/GpL16-k0 (antibody, human IgG1, kappa)
heavy: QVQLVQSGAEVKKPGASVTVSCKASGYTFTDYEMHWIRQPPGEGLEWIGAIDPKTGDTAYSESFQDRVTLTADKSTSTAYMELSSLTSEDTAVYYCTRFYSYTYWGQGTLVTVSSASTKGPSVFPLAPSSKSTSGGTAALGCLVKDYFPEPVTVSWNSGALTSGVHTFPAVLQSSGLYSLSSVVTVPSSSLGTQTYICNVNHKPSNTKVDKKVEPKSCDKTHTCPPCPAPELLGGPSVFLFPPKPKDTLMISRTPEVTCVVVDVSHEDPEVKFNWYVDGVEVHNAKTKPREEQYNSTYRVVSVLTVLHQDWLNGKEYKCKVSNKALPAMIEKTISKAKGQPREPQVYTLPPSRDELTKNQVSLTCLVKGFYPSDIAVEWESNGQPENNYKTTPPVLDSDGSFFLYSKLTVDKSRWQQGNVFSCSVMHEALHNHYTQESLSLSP
light: B1 light
notes: as for B1
B11: GpH7-B3 variant P331_07I/GpL16-k0 (antibody, human IgG1, kappa)
heavy: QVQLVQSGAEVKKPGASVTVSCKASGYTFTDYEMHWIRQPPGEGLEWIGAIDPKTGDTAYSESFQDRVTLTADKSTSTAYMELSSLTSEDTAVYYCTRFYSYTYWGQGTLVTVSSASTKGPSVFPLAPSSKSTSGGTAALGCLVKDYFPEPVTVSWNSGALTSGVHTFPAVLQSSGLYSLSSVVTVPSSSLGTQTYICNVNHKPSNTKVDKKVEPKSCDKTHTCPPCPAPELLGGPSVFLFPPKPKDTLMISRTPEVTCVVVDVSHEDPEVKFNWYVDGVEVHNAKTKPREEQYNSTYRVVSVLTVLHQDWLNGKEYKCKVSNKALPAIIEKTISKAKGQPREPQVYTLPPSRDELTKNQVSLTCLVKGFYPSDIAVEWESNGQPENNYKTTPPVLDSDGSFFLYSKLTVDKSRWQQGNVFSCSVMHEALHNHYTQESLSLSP
light: B1 light
notes: as for B1
B12: GpH7-B3 variant P331_08L/GpL16-k0 (antibody, human IgG1, kappa)
heavy: not shown
light: B1 light
notes: as for B1
B13: GpH7-B3 variant P331_09D/GpL16-k0 (antibody, human IgG1, kappa)
heavy: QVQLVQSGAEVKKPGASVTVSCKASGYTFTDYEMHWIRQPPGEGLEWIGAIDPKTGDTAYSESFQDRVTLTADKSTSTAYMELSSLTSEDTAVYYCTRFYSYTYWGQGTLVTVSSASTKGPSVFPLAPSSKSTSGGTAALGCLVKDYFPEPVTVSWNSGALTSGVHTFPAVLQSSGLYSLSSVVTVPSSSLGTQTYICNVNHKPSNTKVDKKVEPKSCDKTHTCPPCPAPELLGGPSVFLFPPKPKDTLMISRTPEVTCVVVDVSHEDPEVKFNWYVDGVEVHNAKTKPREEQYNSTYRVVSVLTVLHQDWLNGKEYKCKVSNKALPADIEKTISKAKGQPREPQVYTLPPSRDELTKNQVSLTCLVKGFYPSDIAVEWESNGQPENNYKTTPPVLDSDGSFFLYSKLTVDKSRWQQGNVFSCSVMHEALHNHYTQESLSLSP
light: B1 light
notes: as for B1
B14: GpH7-B3 variant P331_10E/GpL16-k0 (antibody, human IgG1, kappa)
heavy: not shown
light: B1 light
notes: as for B1
B15: GpH7-B3 variant P331_13S/GpL16-k0 (antibody, human IgG1, kappa)
heavy: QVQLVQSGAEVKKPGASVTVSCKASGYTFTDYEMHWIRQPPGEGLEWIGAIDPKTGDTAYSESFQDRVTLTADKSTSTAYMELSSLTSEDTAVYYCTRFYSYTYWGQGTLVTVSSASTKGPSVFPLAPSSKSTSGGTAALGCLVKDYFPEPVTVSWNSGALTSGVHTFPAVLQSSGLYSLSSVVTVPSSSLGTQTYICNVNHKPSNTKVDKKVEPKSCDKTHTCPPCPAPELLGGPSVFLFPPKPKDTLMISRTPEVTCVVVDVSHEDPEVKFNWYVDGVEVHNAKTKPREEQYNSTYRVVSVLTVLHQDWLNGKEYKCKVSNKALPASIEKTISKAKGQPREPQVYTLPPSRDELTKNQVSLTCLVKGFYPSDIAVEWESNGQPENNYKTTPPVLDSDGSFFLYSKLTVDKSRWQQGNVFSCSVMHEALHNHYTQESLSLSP
light: B1 light
notes: as for B1
B16: GpH7-B3 variant P331_14T/GpL16-k0 (antibody, human IgG1, kappa)
heavy: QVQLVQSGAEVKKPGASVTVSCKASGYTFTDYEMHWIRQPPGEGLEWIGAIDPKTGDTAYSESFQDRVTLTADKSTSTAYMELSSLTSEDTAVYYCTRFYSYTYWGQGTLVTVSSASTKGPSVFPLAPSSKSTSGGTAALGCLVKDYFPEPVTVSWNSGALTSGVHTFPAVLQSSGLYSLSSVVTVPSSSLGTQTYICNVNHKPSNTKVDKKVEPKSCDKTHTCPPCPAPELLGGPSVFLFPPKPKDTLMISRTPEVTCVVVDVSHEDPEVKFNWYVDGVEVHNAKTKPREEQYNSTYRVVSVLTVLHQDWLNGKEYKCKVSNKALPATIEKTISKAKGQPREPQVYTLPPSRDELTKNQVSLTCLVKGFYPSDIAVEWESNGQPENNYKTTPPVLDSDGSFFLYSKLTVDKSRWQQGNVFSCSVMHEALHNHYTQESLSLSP
light: B1 light
notes: as for B1
B17: GpH7-B3 variant P331_18N/GpL16-k0 (antibody, human IgG1, kappa)
heavy: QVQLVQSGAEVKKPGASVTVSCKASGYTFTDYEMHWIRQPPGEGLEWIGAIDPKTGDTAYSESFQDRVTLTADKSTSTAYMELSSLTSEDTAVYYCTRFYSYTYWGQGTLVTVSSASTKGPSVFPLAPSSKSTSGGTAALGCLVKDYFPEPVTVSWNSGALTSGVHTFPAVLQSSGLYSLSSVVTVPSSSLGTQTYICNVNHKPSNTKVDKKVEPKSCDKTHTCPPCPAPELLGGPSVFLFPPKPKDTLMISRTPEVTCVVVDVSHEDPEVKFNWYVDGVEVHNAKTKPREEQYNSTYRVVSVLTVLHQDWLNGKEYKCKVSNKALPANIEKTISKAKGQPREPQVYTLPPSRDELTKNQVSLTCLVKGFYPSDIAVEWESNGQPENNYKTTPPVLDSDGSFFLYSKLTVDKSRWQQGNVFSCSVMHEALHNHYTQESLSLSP
light: B1 light
notes: as for B1
B18: GpH7-A5/GpH7-B3 variant S337_09D/GpL16-k0 (antibody, human IgG1, kappa)
heavy 1: not shown
heavy 2: not shown
light: B1 light
notes: heterodimerized, mutation in one H chain only; also called He Ab
B19: GpH7-A5/GpH7-B3 variant S337_10E/GpL16-k0 (antibody, human IgG1, kappa)
heavy 1: not shown
heavy 2: not shown
light: B1 light
notes: as for B18
B20: GpH7-A5/GpH7-B3 variant T335_01G/GpL16-k0 (antibody, human IgG1, kappa)
heavy 1: not shown
heavy 2: not shown
light: B1 light
notes: as for B18
B21: GpH7-A5/GpH7-B3 variant T335_07I/GpL16-k0 (antibody, human IgG1, kappa)
heavy 1: not shown
heavy 2: not shown
light: B1 light
notes: as for B18
B22: GpH7-A5/GpH7-B3 variant T335_10E/GpL16-k0 (antibody, human IgG1, kappa)
heavy 1: not shown
heavy 2: not shown
light: B1 light
notes: as for B18
B23: GpH7-A5/GpH7-B3 variant T335_13S/GpL16-k0 (antibody, human IgG1, kappa)
heavy 1: not shown
heavy 2: not shown
light: B1 light
notes: as for B18
B24: GpH7-A5/GpH7-B3 variant T335_15Y/GpL16-k0 (antibody, human IgG1, kappa)
heavy 1: not shown
heavy 2: not shown
light: B1 light
notes: as for B18
B25: GpH7-A5/GpH7-B3 variant T335_16H/GpL16-k0 (antibody, human IgG1, kappa)
heavy 1: not shown
heavy 2: not shown
light: B1 light
notes: as for B18
B26: GpH7-A5/GpH7-B3 variant T335_19Q/GpL16-k0 (antibody, human IgG1, kappa)
heavy 1: not shown
heavy 2: not shown
light: B1 light
notes: as for B18
B27: GpH7-A5/GpH7-B3 variant V266_07I/GpL16-k0 (antibody, human IgG1, kappa)
heavy 1: not shown
heavy 2: not shown
light: B1 light
notes: as for B18
B28: GpH7-A5/GpH7-B3 variant Y296_18N/GpL16-k0 (antibody, human IgG1, kappa)
heavy 1: not shown
heavy 2: not shown
light: B1 light
notes: as for B18
B29: GpH7-A5/GpH7-B3 variant A327_09D/GpL16-k0 (antibody, human IgG1, kappa)
heavy 1: not shown
heavy 2: not shown
light: B1 light
notes: as for B18
B30: GpH7-A5/GpH7-B3 variant A330_19Q/GpL16-k0 (antibody, human IgG1, kappa)
heavy 1: not shown
heavy 2: not shown
light: B1 light
notes: as for B18
B31: GpH7-A5/GpH7-B3 variant E333_04F/GpL16-k0 (antibody, human IgG1, kappa)
heavy 1: not shown
heavy 2: not shown
light: B1 light
notes: as for B18
B32: GpH7-A5/GpH7-B3 variant E333_08L/GpL16-k0 (antibody, human IgG1, kappa)
heavy 1: not shown
heavy 2: not shown
light: B1 light
notes: as for B18
B33: GpH7-A5/GpH7-B3 variant E333_13S/GpL16-k0 (antibody, human IgG1, kappa)
heavy 1: not shown
heavy 2: not shown
light: B1 light
notes: as for B18
B34: GpH7-A5/GpH7-B3 variant E333_14T/GpL16-k0 (antibody, human IgG1, kappa)
heavy 1: not shown
heavy 2: not shown
light: B1 light
notes: as for B18
B35: GpH7-A5/GpH7-B3 variant G236_04F/GpL16-k0 (antibody, human IgG1, kappa)
heavy 1: not shown
heavy 2: not shown
light: B1 light
notes: as for B18
B36: GpH7-A5/GpH7-B3 variant G236_14T/GpL16-k0 (antibody, human IgG1, kappa)
heavy 1: not shown
heavy 2: not shown
light: B1 light
notes: as for B18
B37: GpH7-A5/GpH7-B3 variant G236_15Y/GpL16-k0 (antibody, human IgG1, kappa)
heavy 1: not shown
heavy 2: not shown
light: B1 light
notes: as for B18
B38: GpH7-A5/GpH7-B3 variant I336_03V/GpL16-k0 (antibody, human IgG1, kappa)
heavy 1: not shown
heavy 2: not shown
light: B1 light
notes: as for B18
B39: GpH7-A5/GpH7-B3 variant I336_10E/GpL16-k0 (antibody, human IgG1, kappa)
heavy 1: not shown
heavy 2: not shown
light: B1 light
notes: as for B18
B40: GpH7-A5/GpH7-B3 variant I336_18N/GpL16-k0 (antibody, human IgG1, kappa)
heavy 1: not shown
heavy 2: not shown
light: B1 light
notes: as for B18
B41: GpH7-A5/GpH7-B3 variant K326_01G/GpL16-k0 (antibody, human IgG1, kappa)
heavy 1: not shown
heavy 2: not shown
light: B1 light
notes: as for B18
B42: GpH7-A5/GpH7-B3 variant K326_07I/GpL16-k0 (antibody, human IgG1, kappa)
heavy 1: not shown
heavy 2: not shown
light: B1 light
notes: as for B18
B43: GpH7-A5/GpH7-B3 variant K326_12R/GpL16-k0 (antibody, human IgG1, kappa)
heavy 1: not shown
heavy 2: not shown
light: B1 light
notes: as for B18
B44: GpH7-A5/GpH7-B3 variant K334_13S/GpL16-k0 (antibody, human IgG1, kappa)
heavy 1: not shown
heavy 2: not shown
light: B1 light
notes: as for B18
B45: GpH7-A5/GpH7-B3 variant K334_19Q/GpL16-k0 (antibody, human IgG1, kappa)
heavy 1: not shown
heavy 2: not shown
light: B1 light
notes: as for B18
B46: GpH7-A5/GpH7-B3 variant L234_04F/GpL16-k0 (antibody, human IgG1, kappa)
heavy 1: not shown
heavy 2: not shown
light: B1 light
notes: as for B18
B47: GpH7-A5/GpH7-B3 variant L234_15Y/GpL16-k0 (antibody, human IgG1, kappa)
heavy 1: not shown
heavy 2: not shown
light: B1 light
notes: as for B18
B48: GpH7-A5/GpH7-B3 variant L234_20W/GpL16-k0 (antibody, human IgG1, kappa)
heavy 1: not shown
heavy 2: not shown
light: B1 light
notes: as for B18
B49: GpH7-A5/GpH7-B3 variant S239_08L/GpL16-k0 (antibody, human IgG1, kappa)
heavy 1: not shown
heavy 2: not shown
light: B1 light
notes: as for B18
B50: GpH7-A5/GpH7-B3 variant S239_10E/GpL16-k0 (antibody, human IgG1, kappa)
heavy 1: not shown
heavy 2: not shown
light: B1 light
notes: as for B18
B51: GpH7-A5/GpH7-B3 variant S267_09D/GpL16-k0 (antibody, human IgG1, kappa)
heavy 1: not shown
heavy 2: not shown
light: B1 light
notes: as for B18
B52: GpH7-A5/GpH7-B3 variant S267_10E/GpL16-k0 (antibody, human IgG1, kappa)
heavy 1: not shown
heavy 2: not shown
light: B1 light
notes: as for B18
B53: GpH7-A5/GpH7-B3 variant S337_07I/GpL16-k0 (antibody, human IgG1, kappa)
heavy 1: not shown
heavy 2: not shown
light: B1 light
notes: as for B18

These binders were tested against T1, FcγRIIa R (human FcγRIIa, allotype R, …) (assay: SPR (Biacore), relative binding vs GpH7-B3/GpL16-k0).
Experimental: Analysis of interaction between objective antibody and the FcγR was carried out using Biacore T100 (GE Healthcare). HBS-EP+ (GE Healthcare) was used as the running buffer, and the measurement temperature was set to 25° C. Chips produced by immobilizing the antigen peptide by the amine coupling method to a Series S Sencor Chip CM5 (GE Healthcare), or alternatively, chips produced by allowing preliminarily biotinylated antigen peptides to interact with and immobilize onto a Series S Sensor Chip SA (certified) (GE Healthcare) were used. Antibodies of interest were captured onto an antigen peptide-immobilized chip, and allowed to interact to each FcγR diluted with running buffer. To regenerate and repeatedly use the chip, the antibodies captured on the chip were washed off by reacting 10 mM glycine-HCl, pH 1.5.
The FcγR-binding activity of each antibody was assessed primarily using as an indicator the FcγR-binding activity and dissociation constant for FcγR.

Row | Binder | Ho/Con_2aR
1 | B1 | 102 relative, control = 100
2 | B2 | 21.4 relative, control = 100
3 | B3 | 95.9 relative, control = 100
4 | B4 | 25.5 relative, control = 100
5 | B5 | 19.4 relative, control = 100
6 | B6 | 25.7 relative, control = 100
7 | B7 | 92.4 relative, control = 100
8 | B8 | 88.8 relative, control = 100
9 | B9 | 89.1 relative, control = 100
10 | B10 | 79.8 relative, control = 100
11 | B11 | 67 relative, control = 100
12 | B12 | 74.4 relative, control = 100
13 | B13 | 88.8 relative, control = 100
14 | B14 | 94.6 relative, control = 100
15 | B15 | 87.8 relative, control = 100
16 | B16 | 80.8 relative, control = 100
17 | B17 | 76.9 relative, control = 100

What follows are binders tested against FcγRIIa H (human FcγRIIa, allotype with His at position 131), extracellular domain with C-terminal His tag (human, UniProt P12318 34-217) (assay: SPR (Biacore), antibody captured on antigen peptide chip, FcγR as analyte; relative to HeCon Ab GpH7-A5/GpH7-B3/GpL16-k0 = 100).

Row | Binder | He/Con_2aH [control = 100]
18 | B18 | 107
19 | B19 | 102
20 | B20 | 103
21 | B21 | 108
22 | B22 | 108
23 | B23 | 106
24 | B24 | 106
25 | B25 | 105
26 | B26 | 103
27 | B27 | 106
28 | B28 | 104
29 | B29 | 105
30 | B30 | 102
31 | B31 | 102
32 | B32 | 102
33 | B33 | 101
34 | B34 | 100
35 | B35 | 118

Row | Binder | He/Con_2aH [control = 100]
36 | B36 | 103
37 | B37 | 136
38 | B38 | 102
39 | B39 | 102
40 | B40 | 103
41 | B41 | 100
42 | B42 | 100
43 | B43 | 101
44 | B44 | 102
45 | B45 | 101
46 | B46 | 120
47 | B47 | 120
48 | B48 | 114
49 | B49 | 105
50 | B50 | 112
51 | B51 | 105
52 | B52 | 102
53 | B53 | 101
